B1: mAb03 (imdevimab) (antibody, V domains shown)
VH: QVQLVESGGGVVQPGRSLRLSCAASGFTFSNYAMYWVRQAPGKGLEWVAVISYDGSNKYYADSVKGRFTISRDNSKNTLYLQMNSLRTEDTAVYYCASGSDYGDYLLVYWGQGTLVTVSS
VL: QSALTQPASVSGSPGQSITISCTGTSSDVGGYNYVSWYQQHPGKAPKLMIYDVSKRPSGVSNRFSGSKSGNTASLTISGLQSEDEADYYCNSLTSISTWVFGGGTKLTVL
B2: mAb27 (H014) (antibody, V domains shown)
VH: EVQLVQSGAEVKKPGATVKISCKVSGYSFSNYYIHWVKQAPGKSLEWIGYIDPFNGGTSDNLKFKGAATLTADTSTDTAYMELSSLRSEDTAVYYCARSEYDPYYVMDYWGQGTTVTVSS
VL: IVLTQSPFQSVSPKEKVTITCRASQSISSNLHWYQQKPDQSPKLLIKYASQSISGIPSRFSGSGSGTDFTLTINSLEAEDFGIYFCQQTNFWPYIFGQGTKLEIL
B3: mAb26 (4A8) (antibody, V domains shown)
VH: EVQLVESGAEVKKPGASVKVSCKVSGYTLTELSMHWVRQAPGKGLEWMGGFDPEDGETMYAQKFQGRVTMTEDTSTDTAYMELSSLRSEDTAVYYCATSTAVAGTPDLFDYYYGMDVWGQGTTVTVSS
VL: EIVMTQSPLSSPVTLGQPASISCRSSQSLVHSDGNTYLSWLQQRPGQPPRLLIYKISNRFSGVPDRFSGSGAGTDFTLKISRVEAEDVGVYYCTQATQFPYTFGQGTKVDIK
B4: mAb21 (S2A4) (antibody, V domains shown)
VH: EVQLVESGGGLVQPGGSLRLSCAASGFTFSSYWMNWVRQAPGKGLEWVANIKQDGSEKYYVDSVKGRFTISRDNAKNSLFLQMNSLRAEDTAVYYCARVWWLRGSFDYWGQGTLVTVSS
VL: NFMLTQPHSVSESPGKTVTISCTGSSGSIASNYVQWYQQRPGSAPTTVIYEDNQRPSGVPDRFSGSIDSSSNSASLTISGLKTEDEADYYCQSYDSSNHVVFGGGTKLTVL

What was measured:
Assay in all cases: electrochemiluminescence
[1] = molecular target: SARS-CoV-2 spike protein, Delta *2 (B.1.617.2; AY.4.2) (SARS-CoV-2, Delta B.1.617.2; AY.4.2 …, L452R)
[2] = molecular target: SARS-CoV-2 spike protein, Delta *3 (B.1.617.2; AY.3; AY.5; AY.6; AY.7; AY.14) (SARS-CoV-2, Delta (B.1.617.2; AY.3; …, L452R)
[3] = molecular target: SARS-CoV-2 spike protein, Delta *1 (B.1.617.2; AY.4) (SARS-CoV-2, Delta B.1.617.2; AY.4 …, L452R)
[4] = molecular target: SARS-CoV-2 spike protein, Gamma (P.1) (SARS-CoV-2, Gamma (P.1), E484K)

Binder	relative binding (% of that to Wuhan spike, from AUCs) [1]	relative binding (% of that to Wuhan spike, from AUCs) [2]	relative binding (% of that to Wuhan spike, from AUCs) [3]	relative binding (% of that to Wuhan spike, from AUCs) [4]
B1	> 80%	> 80%	> 80%	
B2	> 80%	> 80%	> 80%	
B3				≥ 20%
B4	> 80%	> 80%	> 80%	
